This note sets out measurements from PMC5758712 (2018).

As usually defined, the Kd is a measure of binding affinity in units of concentration.

For one test, the target named is UBE2D1 (Homo sapiens (Human), UniProt P51668). In words: ITC; UbcH7 cells RING1 fragment, UbcH5A cells whole RBR.
A further test deals with UBE2L3 (Homo sapiens (Human), UniProt P68036). Described as above.
Sequence of UBE2L3 (P68036 whole entry): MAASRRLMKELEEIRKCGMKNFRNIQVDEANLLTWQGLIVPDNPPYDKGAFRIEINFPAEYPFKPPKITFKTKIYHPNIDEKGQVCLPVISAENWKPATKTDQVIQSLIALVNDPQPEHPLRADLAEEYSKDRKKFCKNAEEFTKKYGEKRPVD

Sequence of UBE2D1 (P51668 whole entry, the tested form may be a part): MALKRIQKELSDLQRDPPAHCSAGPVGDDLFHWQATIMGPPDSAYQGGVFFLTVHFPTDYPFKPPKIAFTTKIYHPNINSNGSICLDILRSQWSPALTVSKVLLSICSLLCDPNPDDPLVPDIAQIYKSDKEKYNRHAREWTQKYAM

B1: TRIAD3A (protein)
chain: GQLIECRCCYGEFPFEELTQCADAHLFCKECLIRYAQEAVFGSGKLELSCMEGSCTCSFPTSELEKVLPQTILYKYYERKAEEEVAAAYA
B1: the Kd was over 50 µM in the test with UBE2D1 and 3200 nM with UBE2L3.

B2: HHARI (protein)
chain: TRSSAQDMPCQICYLNYPNSYFTGLECGHKFCMQCWSEYLTTKIMEEGMGQTISCPAHGCDILVDDNTVMRLITDSKVKLKYQHLITNSFVECN
For the molecule B2, the Kd in the test with UBE2D1 was over 50 µM; in the test with UBE2L3, 210 nM.
